Source: publication PMC4361737 (The Journal of investigative dermatology, 2013)

B1: AMACO P2 (domain or fragment)
chain: SSSALCTTADPDCRVEPHPCERRTLETVRELAGNALCWRGSRQADTVLALPCPFYSWKRVFQTHPANCYRTICPGPCDSQPCQNGGTCIPEGVDRYHCLCPLAFGGEVNCAPKLSLECRIDVLFLLDSSAGTTLGGFRRAKAFVKRFVQAVLREDSRARVGIASYGRNLMVAVPVGEYQHVPDLIRSLDSIPFSGGPTLTGSALLQVAEHGFGSASRTGQDRPRRVVVLLTESRSQDEVSGPAAHARARELLLLGVGSEILQAELVKITGSPKHVMVHTDPQDLFSQIPELQRRL
modifications: two unusual glycan chains
B2: Fras1 CSPG (domain or fragment)
chain: TPSLHVNGSLTLGIGSMKPLDFSLLNIQHQDGRVEDLLFHVVSTPTNGQLLLSRNGKEVQLEKAGHFSWKDVNEKKVRFVHSKEKLRKGYFSLKISDQQFFSEPQLINIQAFSTQAPYVLRNEVLHVSKGERATITTQLLDIRDDDNPQDVVVNVLDPPLHGQLLQMPPAPAASIYQFHLDELSRGLLLYAHDGSDSTSDIIVFQANDGHSFQNILFHVKNIPKNDRALRLVTNSMVWVPEGGMLKITNRILKAQAPGVRADDIIYKITHSRPQFGEVVLLMNLPADSPAGPAEEGHHLPDGRMATPISTFTQQDIDDGVVWYRHLGAPTQSDSFRFQVSSATSAQEHLESHMFNIAILPQAPEAPKLSLGTSLHMTAREDGLSVIQPQSLSFVKAESPSGKIIYNITVPLHPNQGIIEHRDRPHSPIQYFTQEDINQGQIMYRPPVAPPHLQEIMAFSFAGLPESVKFYFTVSDGQHTSPEMALTIHLLHSDLQPPAFQVKAPLLEVSPGGRTSLGLQLLVRDAQVVPEELFFQLQKSPQHGMLVKYTAKSSVTMAAGDTFTYDEVERNVLQYVHDGSSAWEDSLEISVTDGLTVTTSEVKVEVSPSENRGPRLAPGSSLSMTVASQHTAIITRSHLAYVDDSSSDPEIWIRLSSLPLYGVLFRSSGPDMDELSGDSNFTMEDINKKNIRYSAVFETDGHSVTDGFHFSVSDMDGNHVDNQVFTITVTPAENPPHIIAFADLITVDEGGRAPLSLHHFFATEDQDNLQDDAVIKLSALPKYGCIENTGTGDRFGPGANSELEASFPIQDVLENYIYYFQSVHESIEPTHDVFSFYVSDGSGRSEIHSINITIERKNDEPPRMTLRPLGVRLSSGVAISNSSLSLQDLDTPDNELIFVLMKKPDHGHLLRRSTASDPLENGTVLDQGSSFTYQDVLAGLVGYLPGDIYMAVDEFRFSLTDGLHVDTGRMEIYIELPSTNIPHLAINRGLQLSAGSVARITEQHLKATDTDSEAGQVVYIMKEDPGAGRLLMAKADNLEQISVRGPIRSFTQADVSQGQIEYSHGPGEPGGSFAFKFDVVDGEGNKLADQSFSIGVLEDKSPPVVITNRGLVLDENSVEKITTAQLSATDQDSKPTELIYRITTQPQLGHLEHVASPGIQISSFTQADLASRNVQYVRSSGTGKQSDAFSFVLSDGLHEVTQTFPITIHPVDDARPLVQNRGMRVQEGVRKTITEFELKAVDVDTEAESITFTIVQPPRHGTIERTARGQRFHQTSSFTMEDIYQNRVSYSHDGSNSLKDRFTFTVSDGTNPFFIIEEGGEEIMTAAPQQFHVDILPVDDGTPRIVTNLGLQWLEYMDGKATNLITKKELLTVDPDTEDSQLIYEVTTGPMHGYLENKLQPGRAAATFTQEHVNLGLIRYVLYEEKIQKVMDSFQFLVKDSKPNV

Key:
Fras1 CSPG = target: B2; assay: SPR
AMACO P2 = target: B1; assay: SPR

Row | Kd (Fras1 CSPG) [nM] | Kd (AMACO P2) [nM] | Binder
1 | 151 |  | B1
2 |  | 42 | B2
